Molecular target: Mycobacterium tuberculosis cell wall sulfoglycolipid peptide on CD1b (human)
Assay: IFN-γ ELISPOT. CD4 clone of primary T cells transduced with the A05 TCR, with K562-CD1b. SGL was titrated from 1 µg/ml to 10^-7 µg/ml. This EC50 is stated to be 100-fold lower than that of an A05-CD8 T cell clone.; full-length, on cells
Settings: chains alpha TRAV13-2 TRAJ52 CDR3:beta TRBV20-1 TRBJ1-2 CDR3

B1: A05 TCR (peptide)
chain 1: CAEVLGGTSYGKLTF
chain 2: CSASGRRGYGYTF
B1 was tested. Which EC50 of peptide did it give?
The EC50 of peptide was 0.6 ng/mL.
